Reference: patent US20190201542A1 (AbbVie / Abbott, published 2019)
Substitutions are numbered along the chain they refer to.

T1: human DLL3 (human, UniProt Q9NYJ7 27-492, limits assumed)
T1 construct: also called hDLL3; DLL3 protein
T1 sequence: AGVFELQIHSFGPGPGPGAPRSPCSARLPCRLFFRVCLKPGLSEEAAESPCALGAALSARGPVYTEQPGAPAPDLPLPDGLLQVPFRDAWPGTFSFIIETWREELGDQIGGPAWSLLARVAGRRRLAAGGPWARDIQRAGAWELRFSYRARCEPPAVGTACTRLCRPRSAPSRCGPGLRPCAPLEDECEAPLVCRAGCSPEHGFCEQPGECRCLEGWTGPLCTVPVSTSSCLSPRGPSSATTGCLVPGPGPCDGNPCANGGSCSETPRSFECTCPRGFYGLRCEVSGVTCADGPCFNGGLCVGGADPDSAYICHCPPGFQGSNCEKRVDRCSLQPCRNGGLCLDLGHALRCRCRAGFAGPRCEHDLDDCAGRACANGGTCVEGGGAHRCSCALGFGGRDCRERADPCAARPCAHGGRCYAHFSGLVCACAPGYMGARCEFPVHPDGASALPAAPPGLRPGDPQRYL

T2: human ASCL1 (human, UniProt P50553 1-236, limits assumed)
T2 construct: Transcription factor; also called hASCL1; immobilized human ASCL1
T2 sequence (looked up): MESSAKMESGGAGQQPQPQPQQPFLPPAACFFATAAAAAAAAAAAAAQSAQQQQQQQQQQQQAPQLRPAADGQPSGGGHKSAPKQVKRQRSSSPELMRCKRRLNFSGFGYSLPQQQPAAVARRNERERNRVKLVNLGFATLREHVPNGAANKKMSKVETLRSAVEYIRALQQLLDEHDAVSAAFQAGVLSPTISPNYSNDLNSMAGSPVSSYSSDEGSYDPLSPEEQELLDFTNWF

B1: chimeric SC16.25 (antibody, human IgG1, kappa, V domains shown)
VH: QVTLKESGPGILQPSQTLSLTCSFSGFSLSTSGMGVGWIRQPSGEGLEWLTDIWWDDNKYYNPSLKSRLTISKDTSSNQVFLNITSVDTADTATYYCARRVNYYYDPYYAMDYWGQGTSVTVSS
VL: QIVLTQSPAIMSASPGEKVTMTCSASSSVSYMHWYQQKSGTSPKRWIYDSSKLASGVPARFSGSGSGTSYSLTISSMEAEDAATYYCQQWSSNPLTFGAGTKLELKR
notes: murine V regions on human IgG1/kappa; also called chimeric parent antibody of hSC16.25
B2: chimeric SC16.34 (antibody, human IgG1, kappa, V domains shown)
VH: QIQLVQSGPELKRPGETVKISCKASGYTFTNYGMNWVKQAPGKGLKWMGWINTYTGDPTYADDFKGRFAFSLETSASTAYLQINNLKNEDTATYFCARIGGNSPSDYWGQGTSLTVSS
VL: SIVMTQTPKFLLVSAGDRVTITCKASQSVSNDVAWYQQKPGQSPKLLIYYASNRYSGVPDRFTGSGYGTDFTFTISTVQAEDLAVYFCQQDYSSPWTFGGGTKLEIKR
notes: murine V regions on human IgG1/kappa; also called chimeric parent antibody of hSC16.34
B3: chimeric SC16.56 (antibody, human IgG1, kappa, V domains shown)
VH: B2 VH with R13K, G49A, D57E, Y80S, N84I, G101D, N102S, S113T
VL: B2 VL with A34V, S56T, T63A, T72S, S93T, K107R
notes: murine V regions on human IgG1/kappa; also called chimeric parent antibody of hSC16.56
B4: SC72.76 (antibody, V domains shown)
VH: QVQLKESGPGLVAPSQSLSITCTVSDFSLTNYAVHWVRQSPGKGLEWLGVIWSDGNTDYNAPFISRLSISKDNSKSQVFFKMNSLQADDTAIYYCASYGDSAYWGQGTLVTVSA
VL: DIVLTQSPASLTVSLGQRATISCRASQSVRTSNYSYMHWYQQKPGQPPKLLIKYASNLESGVPARFSGSGSGTDFTLNIHPVEEEDTATYYCQHHWEIPFTFGGGTKLEIK
notes: murine mAb
B5: SC72.91 (antibody, V domains shown)
VH: QVQLQQSGPEVVKPGASVKLSCKASGYTFTTYDINWVKQRPGQGLEWIGWIYFRDGTNKYNEKFKGKATLTVDTSSSTAYMELHSLTSEDSAVYFCASVYDGYYVSGFDIMDYWGQGTSVTVSS
VL: DVVLTQTPLSLPVSLGDQASIYCRSSQSIVHSNGNTYFEWYLQKPGQSPKLLIYKVSNRLSGVPDRFSGSGSGTDFTLKISRVEAVDLGIYYCFQASHVPFTFGAGTKLELK
notes: murine mAb
B6: SC72.94 (antibody, V domains shown)
VH: QVQLQQPGTELVKPGASVKLSCKASAYTFTSLWIHWVKQRPGQGLEWIGDINPSIGDTYYNERFKSKATLTVDKSSSTAYMQLSSLTSEDSAVYYCTTGDSWGQGTTLTVSS
VL: DIQMNQSPSSLSASLGDTITITCRASQGISIWLSWYQQKPGNIPKLLIYKASNLHTGVPPSFSGSGSGTDFTLTISSLQPEDIATYYCLQSQSYPWTFGGGTKLEIK
notes: murine mAb
B7: SC72.96 (antibody, V domains shown)
VH: EVQLQQSGPELVKPGASVKMSCKASGYTLTAYNIHWVKQSHGKSLEWIGFINPHSGGTTYNEKFKGKATLTVNKSSSTANMELRSLTSEDSAVYYCASIYYYGSSYFDHWGQGTTLTVSS
VL: DIQMTQSPASLSASVGETVTMTCRASENIHSNLVWYQQKQGKSPQLLVYAATNLADGVPSRFSGSGSGSQFSLKIDSLQPEDFGSYLCQHFYGTPRTFGGGTKLEIK
notes: murine mAb
B8: SC72.132 (antibody, V domains shown)
VH: EVKLVESEGGLVQPGSSMKLSCTASGFTFSDYYMAWVRQVPEKGLEWVATIDYDGSNTYYLDSLKSRFIISRDNAKNILYLQMSSLKSEDTATYYCARDGGYDEDYFDYWGQGTTLTVSS
VL: DIVMSQSPSSLAVSVGEKVTLSCKSSQTLLYSSNQQNYLAWYQQKPGQSPKLLIYWASTRESGVPDRFTGSGSGTDFTLTISSVKAEDLAVYYCHQYYTYPFTFGSGTKLEIK
notes: murine mAb
B9: SC72.165 (antibody, V domains shown)
VH: QVQLQQPGAELVRPGASVRLSCKASGYSFTSYWINWVKQRPGQGLEWIGNIYPGSSNTNYNEKFKRKATLTVDTSSSTAYMQLSSLTSDDSAVYYCARSESDYWGQGTTLTVSS
VL: DIVLTQSPASLAVSPGQRATISCKASQSVGYDGDTYLSWYQQKPGQPPKLLIYGVSILESGIPARFSGSGSGTDFTLNIHPVEEEDAATYYCQQSSEDPYTFGGGTKLEIK
notes: murine mAb
B10: SC72.181 (antibody, V domains shown)
VH: B9 VH with L11V, R13K, S28T, N57S, R66S, A97S
VL: B9 VL with P15L, G30D, Y31D, D34G, L37M, S56F, S96N
notes: murine mAb
B11: SC72.201 (antibody, V domains shown)
VH: EVNLEESGGGLVQPGGSMKLSCVASGFTFSNYWMNWVRQSPEKGLEWVAQIRSKSDNYATHYAESVKGRFTISRDDSKSSVYLQMNNLRSEDTGIYYCRTGPDVWGTGTTVTVSS
VL: DIQMTQSPASLSVSVGETVTITCRASENIYSSLAWYQQKQGNSPQLLVYAATKLADGVPSRFSGSGSGTQYSLKINSLQSEDFGSYYCQHFWGTTWTFGGGTKLEIK
notes: murine mAb
B12: SC72.216 (antibody, V domains shown)
VH: QIQLVQSGPELRKPGETVKISCKASGYTFTNYPMHWVKQAPGKGFKWMGWINTYSGVPSYADDFKGRFAFSLETSASSAYLQINNLKNEDMATYFCARHNYNSYDVFAYWGQGTLVTVSA
VL: B9 VL with L4V, P15L, G30D, T35S, L37M, S38N, V55A, I57N, S96N
notes: murine mAb
B13: hSC16.13 (antibody, human IgG1, kappa, V domains shown)
VH: QITLKESGPTLVKPTQTLTLTCTFSGFSLSTSGMGVGWIRQPPGKALEWLAHIWWDDVKRYSPSLKSRLTITKDTSKNQVVLTMTNMDPVDTATYYCARIVSFDNDVVSAMDYWGQGTLVTVSS
VL: DIQMTQSPSSLSASVGDRVTITCSASSSVSYMYWYQQKPGKAPKLLIYLTSNLASGVPSRFSGSGSGTDFTLTISSLQPEDFATYYCQQWRSNPFTFGQGTKLEIKR
notes: humanized IgG1/kappa; also called humanized SC16.13
B14: hSC16.15 (antibody, human IgG1, kappa, V domains shown)
VH: QVQLVQSGAEVKKPGASVKVSCKASGYTFTRYWIHWIRQAPGQGLEWMGYINPTTVYTEFNQNFKDRVTMTRDTSTSTVYMELSSLRSEDTAVYYCARGGSNFFDYWGQGTTVTVSS
VL: AIQLTQSPSSLSASVGDRVTITCRASENIYYNLAWYQQKPGKAPKLLIYTANSLEDGVPSRFSGSGSGTDFTLTISSLQPEDFATYFCKQAYDVPPTFGGGTKLEIKR
notes: humanized IgG1/kappa; also called humanized SC16.15
B15: hSC16.25 (antibody, human IgG1, kappa, V domains shown)
VH: QITLKESGPTLVKPTQTLTLTCTFSGFSLSTSGMGVGWIRQPPGKALEWLTDIWWDDNKYYNPSLKSRLTITKDTSKNQVVLTMTNMDPVDTATYYCARRVNYYYDPYYAMDYWGQGTLVTVSS
VL: EIVLTQSPDFQSVTPKEKVTITCSASSSVSYMHWYQQKPDQSPKLLIKDSSKLASGVPSRFSGSGSGTDFTLTINSLEAEDAATYYCQQWSSNPLTFGQGTKLEIKR
notes: humanized IgG1/kappa; also called humanized SC16.25
B16: hSC16.34 (antibody, human IgG1, kappa, V domains shown)
VH: QVQLVQSGAEVKKPGASVKVSCKASGYTFTNYGMNWVRQAPGQRLEWMGWINTYTGDPTYADDFKGRVTITRDTSASTAYMELSSLRSEDTAVYYCARIGGNSPSDYWGQGTTVTVSS
VL: DIQMTQSPSSLSASVGDRVTITCKASQSVSNDVAWYQQKPGKVPKLLIYYASNRYSGVPSRFSGSGSGTDFTLTISSLQPEDVATYFCQQDYSSPWTFGGGTKVEIKR
notes: humanized IgG1/kappa; also called humanized SC16.34
B17: hSC16.56 (antibody, human IgG1, kappa, V domains shown)
VH: B16 VH with R44G, D57E, I70M, R72T, A76T, S84R, E89D, G101D, N102S, T113L
VL: EIVMTQSPATLSVSPGERATLSCKASQSVSNDVVWYQQKPGQAPRLLIYYASNRYTGIPARFSGSGSGTEFTLTISSLQSEDFAVYYCQQDYTSPWTFGQGTKLEIKR
notes: humanized IgG1/kappa; also called humanized SC16.56

Columns and labels:
[1] = target: T1, human DLL3; assay: surface plasmon resonance
[2] = target: T2, human ASCL1; assay: screen on immobilized hASCL1 or h293-hASCL1 cells

Row | Binder | binding result [1] | binding result [2]
1 | B1 | binds | –
2 | B2 | binds | –
3 | B3 | binds | –
4 | B4 | – | binds
5 | B5 | – | binds
6 | B6 | – | binds
7 | B7 | – | binds
8 | B8 | – | binds
9 | B9 | – | binds
10 | B10 | – | binds
11 | B11 | – | binds
12 | B12 | – | binds
13 | B13 | binds | –
14 | B14 | binds | –
15 | B15 | binds | –
16 | B16 | binds | –
17 | B17 | binds | –
